Results from PMC7708078, “How to limit the speed of a motor: the intricate regulation of the XPB ATPase and translocase in TFIIH” (Nucleic Acids Research, 2020).

Legend:
[1] = system: ctXPB (Chaetomium thermophilum); test: fluorescence polarization; conditions: 20 mM HEPES pH 7.5, 10 mM KCl, 2.5 mM MgCl2, 1 mM TCEP, 6 nM DNA, room temperature
[2] = system: ctXPB;ctp52;ctp8 (Chaetomium thermophilum;Chaetomium thermophilum;Chaetomium thermophilum); test: fluorescence polarization; conditions: ctp52/ctp8 2:1 to ctXPB; Kd in nM XPB; 2.5 mM MgCl2, no ATP stated; 20 mM HEPES pH 7.5, 10 mM KCl, 2.5 mM MgCl2, 1 mM TCEP, 6 nM DNA, room temperature
[3] = target: ctXPB (from E. coli) (Chaetomium thermophilum)
[4] = target: ctXPB (from E. coli) (Chaetomium thermophilum); remark: listed apart in the source
[5] = target: ctXPB (from E. coli) (Chaetomium thermophilum); remark: listed apart in the source

Substance | activation of ctXPB's ATPase by the ctp52/ctp8 variant, percent of wild type ctp52/ctp8 (% of wild type) [5] | other results
AGCTACCATGCCTGCACGAATTAAGCAATTCGTAATCATGGTCATAGC (double strand) [Cy3-dsDNA 48 bp] | – | Kd [1]: 77 nM; Kd [2]: 51 nM
ctp52 (natural protein) | – | ATPase activity of ctXPB on titration of the co-purified ctp52/ctp34 complex to a fixed amount of ctXPB (Vmax 9.3 μmol ATP*l^−1*min^−1); EC50 [3]: 178 nM
ctp52/ctp8 complex (wild type, co-purified) | – | decrease of the dsDNA-activated ATPase activity of ctXPB (from 58.8 to 18.9 μmol ATP*l^−1*min^−1) on titration of ctp52/ctp8 to an equimolar ctXPB/DNA complex; EC50 [4]: 138 nM; ATPase activity of ctXPB on titration of the co-purified ctp52/ctp8 complex to a fixed amount of ctXPB (full activation 20.1 μmol ATP*l^−1*min^−1); EC50 [3]: 153 nM
ctp52_M390E/ctp8 complex | 57 | –
ctp52_R363E/ctp8 complex | 134 | –
ctp52_Y365A/ctp8 complex | 53 | –

Second part, led by results:

activation of ctXPB's ATPase by the ctp52/ctp8 variant, percent of wild type ctp52/ctp8 (% of wild type) [5] | Substance | other results
6 | ctp52_E359K/R363E / ctp8 complex | –
5 | ctp52_E359K/ctp8 complex | –
46 | ctp52_F387K/ctp8 complex | –
116 | ctp52_R386L/ctp8 complex | –
